{"source": "patent US20190135908A1", "about": "(Novartis, published 2019)", "binders": {"B1": {"name": "ABGDF15-G (antibody, human IgG1, kappa, V domains shown)", "VH": "QVQLVQSGAEVKKPGSSVKVSCKASGGTFSSHYINWVRQAPGQGLEWMGGIIPAFGGANYAQKFQGRVTITADESTSTAYMELSSLRSEDTAVYYCARFGSVYVSRYSSYYHMDVWGQGTLVTVSS", "VL": "DIQMTQSPSSLSASVGDRVTITCRASQTIYRSLAWYQQKPGKAPKLLIYGASILQSGVPSRFSGSGSGTDFTLTISSLQPEDFATYYCLQRYTSPFTFGQGTKVEIKR", "notes": "captured through anti-human Fc in the Biacore assay"}}, "key": {"[1]": {"biological_target": "T1, GDF15 mutant D289R (finger tip region), albumin fusion (human, UniProt Q99988 195-308)", "T1 construct": "not shown: albumin fusion partner", "T1 chain": "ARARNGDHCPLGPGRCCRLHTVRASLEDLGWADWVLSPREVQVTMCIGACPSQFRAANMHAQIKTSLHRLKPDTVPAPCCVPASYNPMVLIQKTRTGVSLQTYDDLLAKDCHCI", "assay": "direct ELISA on coated albumin-fusion GDF15 variant", "description": "(§1) Antibody epitope was determined by a direct ELISA method with GDF15 mutants. Albumin fusion GDF15 mutants were coated in wells of a 96-well EIA plate. After blocking, serially diluted anti-hGDF15 human antibodies were added to the GDF15-coated wells, followed by incubation at an ambient temperature for a few hours. Antibody binding was detected using an anti-human IgG antibody conjugated with horseradish peroxidase (HRP) and HRP substrate."}, "[2]": {"biological_target": "T2, GDF15 mutant Q247R (wrist region), albumin fusion (human, UniProt Q99988 195-308)", "T2 construct": "not shown: albumin fusion partner", "T2 chain": "T1 chain with Q53R, R95D", "assay": "direct ELISA on coated albumin-fusion GDF15 variant", "description": "as §1"}, "[3]": {"biological_target": "T3, GDF15 mutant S278R (back-of-hand), albumin fusion (human, UniProt Q99988 195-308)", "T3 construct": "not shown: albumin fusion partner", "T3 chain": "T1 chain with S84R, R95D", "assay": "direct ELISA on coated albumin-fusion GDF15 variant", "description": "as §1"}, "[4]": {"biological_target": "T4, GDF15 mutant W228R (wrist region), albumin fusion (human, UniProt Q99988 195-308)", "T4 construct": "not shown: albumin fusion partner", "T4 chain": "T1 chain with W34R, R95D", "assay": "direct ELISA on coated albumin-fusion GDF15 variant", "description": "as §1"}, "[5]": {"biological_target": "T5, GDF15 mutant M253R (wrist region), albumin fusion (human, UniProt Q99988 195-308)", "T5 construct": "not shown: albumin fusion partner", "T5 chain": "T1 chain with M59R, R95D", "assay": "direct ELISA on coated albumin-fusion GDF15 variant", "description": "as §1"}, "[6]": {"biological_target": "T6, Mouse His-GDF15: HIS-tagged mouse GDF15 (mouse, UniProt Q9Z0J7 189-303)", "T6 construct": "not shown: His tag", "T6 sequence (looked up)": "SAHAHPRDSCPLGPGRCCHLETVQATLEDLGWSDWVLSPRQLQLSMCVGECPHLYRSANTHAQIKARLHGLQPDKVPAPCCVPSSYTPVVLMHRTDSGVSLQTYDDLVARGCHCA", "assay": "Biacore SPR, IgG captured via anti-human Fc, GDF15 in flow", "description": "(§2) Biacore assay is based on surface plasmon resonance (SPR) and were used to determine the binding affinity of antibodies to GDF15.\n(§3) Anti-human Fc capture antibody was immobilized at 0.5 μg/ml on CMS chip in all four flow cells to achieve 8000 to 12,000 resonance units (RU) on the surface. Anti-hGDF15 antibodies were captured at flow rate […], at 0.25 to 0.5 μg/ml on the chip to get about 30 RU in flow cells 2, 3 and 4. GDF15 ligand was flowed at […] over captured antibodies and reference flow cell 1 for 600 and 1200 seconds contact time. Eight doses serially diluted 1 to 2, ranging from 20 to 0.156 nM, were tested. All cycles were repeated twice, regenerated between cycles with 3M MgCl₂ at flow […], 20 seconds contact time. Data were normalized by subtracting reference flow cell results. Data were fit with 1:1 Kinetics model with RI (bulk refractive index) set constant at 0."}, "[7]": {"biological_target": "T7, Human GDF15 native: naturally produced human GDF15 purchased from Peprotech (human, UniProt Q99988 195-308)", "T7 construct": "Bought protein", "T7 sequence": "T1 chain with R95D", "assay": "Biacore SPR, IgG captured via anti-human Fc, GDF15 in flow", "description": "as §2, §3"}, "[8]": {"biological_target": "T8, Human His-GDF15: HIS-tagged human GDF15 (human, UniProt Q99988 195-308)", "T8 construct": "not shown: His tag", "T8 sequence": "T1 chain with R95D", "assay": "Biacore SPR, IgG captured via anti-human Fc, GDF15 in flow", "description": "as §2, §3"}, "[9]": {"biological_target": "T9, Rat GDF15 HIS: HIS-tagged rat GDF15 (rat, UniProt Q9Z0J6 189-303, limits assumed)", "T9 construct": "also called Rat His-GDF15; not shown: His tag", "T9 sequence (looked up)": "T6 sequence (looked up) with A4L, Q63L, K75R, R110Q", "assay": "Biacore SPR, IgG captured via anti-human Fc, GDF15 in flow", "description": "as §2, §3"}, "[10]": {"biological_target": "T10, Cyno His-GDF15: HIS-tagged cyno GDF15 (cynomolgus, UniProt G7PWZ3 197-308, limits assumed)", "T10 construct": "not shown: His tag", "T10 sequence (looked up)": "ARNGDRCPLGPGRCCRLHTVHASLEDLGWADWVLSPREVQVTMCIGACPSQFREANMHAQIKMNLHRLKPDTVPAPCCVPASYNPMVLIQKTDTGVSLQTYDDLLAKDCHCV", "assay": "Biacore SPR, IgG captured via anti-human Fc, GDF15 in flow", "description": "as §2, §3"}, "[11]": {"biological_target": "T11, human GDF15 (target of the SET measurements; form not stated) (human, UniProt Q99988 195-308, limits assumed)", "T11 sequence": "T1 chain with R95D", "assay": "solution equilibrium titration (SET); SET, not Biacore"}, "[12]": {"biological_target": "T7, Human GDF15 native: naturally produced …", "assay": "Biacore SPR (rounded from Table 2, human GDF15 native)", "description": "as §3"}, "[13]": {"biological_target": "T12, GDF15 mutant S231R (knuckle region), albumin fusion (human, UniProt Q99988 195-308)", "T12 construct": "not shown: albumin fusion partner", "T12 chain": "T1 chain with S37R, R95D", "assay": "direct ELISA: albumin fusion GDF15 mutant coated on the plate, serially diluted antibody, anti-human IgG-HRP detection", "description": "as §1"}, "[14]": {"biological_target": "T13, GDF15 mutant I285R (knuckle region), albumin fusion (human, UniProt Q99988 195-308)", "T13 construct": "not shown: albumin fusion partner", "T13 chain": "T1 chain with I91R, R95D", "assay": "direct ELISA on coated albumin-fusion GDF15 mutant", "description": "as §1"}, "[15]": {"biological_target": "T14, GDF15 mutant L294R (knuckle region), albumin fusion (human, UniProt Q99988 195-308)", "T14 construct": "not shown: albumin fusion partner", "T14 chain": "T1 chain with R95D, L100R", "assay": "direct ELISA on coated albumin-fusion GDF15 mutant", "description": "as §1"}}, "note": "Residue numbers refer to the chain shown, from its start."}
{"binder": "B1", "values": [{"measurement": "binding result", "setting": "[1]", "result": "binds"}, {"measurement": "binding result", "setting": "[2]", "result": "binds"}, {"measurement": "binding result", "setting": "[3]", "result": "binds"}, {"measurement": "binding result", "setting": "[4]", "result": "binds"}, {"measurement": "binding result", "setting": "[5]", "result": "binds"}, {"measurement": "Kd", "setting": "[6]", "result": 154, "unit": "pM"}, {"measurement": "koff", "setting": "[6]", "result": 0.000343, "unit": "s⁻¹"}, {"measurement": "kon", "setting": "[6]", "result": "2.23e+06", "unit": "M⁻¹ s⁻¹"}, {"measurement": "Kd", "setting": "[7]", "result": 88.2, "unit": "pM"}, {"measurement": "koff", "setting": "[7]", "result": 0.000512, "unit": "s⁻¹"}, {"measurement": "kon", "setting": "[7]", "result": "5.8e+06", "unit": "M⁻¹ s⁻¹"}, {"measurement": "Kd", "setting": "[8]", "result": 136, "unit": "pM"}, {"measurement": "koff", "setting": "[8]", "result": 0.000533, "unit": "s⁻¹"}, {"measurement": "kon", "setting": "[8]", "result": "3.9e+06", "unit": "M⁻¹ s⁻¹"}, {"measurement": "Kd", "setting": "[9]", "result": 138, "unit": "pM"}, {"measurement": "koff", "setting": "[9]", "result": 0.000365, "unit": "s⁻¹"}, {"measurement": "kon", "setting": "[9]", "result": "2.63e+06", "unit": "M⁻¹ s⁻¹"}, {"measurement": "Kd", "setting": "[10]", "result": 120, "unit": "pM"}, {"measurement": "koff", "setting": "[10]", "result": 0.000694, "unit": "s⁻¹"}, {"measurement": "kon", "setting": "[10]", "result": "5.79e+06", "unit": "M⁻¹ s⁻¹"}, {"measurement": "Kd", "setting": "[11]", "result": 20, "unit": "pM"}, {"measurement": "Kd", "setting": "[12]", "result": 88, "unit": "pM"}, {"measurement": "binding result", "setting": "[13]", "result": "binds"}, {"measurement": "binding result", "setting": "[14]", "result": "no binding"}, {"measurement": "binding result", "setting": "[15]", "result": "no binding"}]}
